Laboratory results published in patent publication US6074842.

Target: rat perilipin A (62-kDa phosphoprotein of unstimulated rat adipocytes; 65/67-kDa forms after stimulation) (rat)
Settings: scale: ratio to 1

32P incorporation and shift in SDS-PAGE from 62-kDa to 65/67-kDa in isoproterenol-stimulated rat adipocytes: 5
Substance: cAMP-dependent protein kinase (enzyme)
